Target: A2MR receptor on Vero cells (monkey (Vero cell line))
Test: cell-based or functional assay

RAPR13 (recombinant human LRPAP1 / receptor-associated protein with an N-terminal tag of 6 histidines and a thrombin cleavage site), sequence (P30533 other isoform, or with tags, fused parts or gaps limits assumed): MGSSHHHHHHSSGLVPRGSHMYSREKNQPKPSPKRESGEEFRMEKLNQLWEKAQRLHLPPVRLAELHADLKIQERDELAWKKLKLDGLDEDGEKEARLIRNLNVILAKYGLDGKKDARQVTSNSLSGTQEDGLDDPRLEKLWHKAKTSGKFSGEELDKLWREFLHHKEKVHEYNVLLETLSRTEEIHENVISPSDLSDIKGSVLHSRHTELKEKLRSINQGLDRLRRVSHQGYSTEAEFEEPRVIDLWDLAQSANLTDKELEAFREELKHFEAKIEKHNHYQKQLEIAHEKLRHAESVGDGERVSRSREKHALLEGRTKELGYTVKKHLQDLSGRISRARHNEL

RAPR13 (recombinant human LRPAP1 / receptor-associated protein with an N-terminal tag of 6 histidines and a thrombin cleavage site) (from UniProt P30533 35-357) (ligand)
inhibition of the infection of Vero cells by DV1 (West Pac 74), lytic plaque assay, RAPR13 at 100 µg/mL: 65%
inhibition of the infection of Vero cells by DV2 (S16803), lytic plaque assay, RAPR13 at 100 µg/mL: 76%
inhibition of the infection of Vero cells by DV3 (CH53489), lytic plaque assay, RAPR13 at 100 µg/mL: 60%
inhibition of the infection of Vero cells by DV4 (TVP360), lytic plaque assay, RAPR13 at 100 µg/mL: 75%
